From doi:10.1101/2020.12.29.424679 (bioRxiv, 2020) come the findings set out here.

B1: Human BRCA2 fragment F15X (N2291-Q2342) (peptide)
chain: NEFDRIIENQEKSLKASKSTPDGTIKDRRLFMHHVSLEPITTVPFRTTKERQ
B2: Human BRCA2 fragment FNMR (S2252-Q2342) (domain or fragment)
chain: SLFTCPENEEMVLSNSRIGKRRGEPLILVGEPSIKRNLLNEFDRIIENQEKSLKASKSTPDGTIKDRRLFMHHVSLEPITTVPFRTTKERQ
B3: Human BRCA2 fragment F0 (S2213-Q2342, C2332T) (domain or fragment)
chain: STYSKDSENYFETEAVEIAKAFMEDDELTDSKLPSHATHSLFTCPENEEMVLSNSRIGKRRGEPLILVGEPSIKRNLLNEFDRIIENQEKSLKASKSTPDGTIKDRRLFMHHVSLEPITTVPFRTTKERQ
B4: Mouse HSF2BP, natively expressed in ES cells (natural protein)
chain: MAATVGDGSGTEEACRNMESKEEFVKVRKKDLERLTTEVMQIRDFLPRILNGELLESFQKLKMVEKNLERKEQELEQLIMDREHFKARLETAQADSGREKKEKLALRQQLNEAKQQLLQQAEYCTQMGAVTCTLLWGVSSSEEVVKTILGGDKALKFFNITGQTMESFVKSLDGDVKEVDSDENQFVFALAGIVTNVAAIACGREFLVNSSRVLLDTMLQLLGDLKPGQCTKLKVLMLMSLYNVSINSKGLKYITESPGFIPLLWWLLSDPDAEVCLHTLRLIQSVVLEPDVFSKVASELQSSLPLQRILAMSKSRNSHLQSAAQELLEDLRALDCNV
B5: Armadillo domain of HSF2BP (ARM, aa 122 to aa 334) (domain or fragment)
chain: EMGAAACTLLWGVSSSEEVVKAILGGDKALKFFSITGQTMESFVKSLDGDVQELDSDESQFVFALAGIVTNVAAIACGREFLVNSSRVLLDTILQLLGDLKPGQCTKLKVLMLMSLYNVSINLKGLKYISESPGFIPLLWWLLSDPDAEVCLHVLRLVQSVVLEPEVFSKSASEFRSSLPLQRILAMSKSRNPRLQTAAQELLEDLRTLEHNV

Series [1] addresses Mouse HSF2BP-GFP (mouse (knock-in allele in mES cells)) (UniProt Q9D4G2). As to the kind of experiment: co-IP.
Series [2] deals with T1, Human full length HSF2BP WT (human, UniProt O75031 1-334).
T1 sequence: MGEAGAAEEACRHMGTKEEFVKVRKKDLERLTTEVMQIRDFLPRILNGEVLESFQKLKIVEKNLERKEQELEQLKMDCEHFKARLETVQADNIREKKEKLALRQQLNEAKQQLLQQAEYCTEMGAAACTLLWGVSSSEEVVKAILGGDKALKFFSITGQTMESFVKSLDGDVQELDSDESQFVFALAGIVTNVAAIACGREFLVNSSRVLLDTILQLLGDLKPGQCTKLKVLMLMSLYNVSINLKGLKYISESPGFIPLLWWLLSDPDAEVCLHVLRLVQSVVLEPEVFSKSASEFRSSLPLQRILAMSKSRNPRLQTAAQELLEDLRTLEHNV
As to the kind of experiment: ITC.

Series [3] concerns the target B5. The series is described as follows: ITC.
Series [4] concerns the target Mouse BRCA2-GFP Δ12 (mouse (knock-in allele in mES cells)) (UniProt P97929). The series is described as follows: co-IP.
The series “SEC-MALS” deals with the molecule itself. As to the kind of experiment: SEC-MALS.
Series [5] deals with the molecule itself. As to the kind of experiment: SEC-MALS + other: SEC-SAXS. (In general: In gel filtration, larger molecules generally elute earlier.)

Chain of Mouse BRCA2-GFP Δ12 (mouse (knock-in allele in mES cells)) (P97929 whole entry, stated change not applied): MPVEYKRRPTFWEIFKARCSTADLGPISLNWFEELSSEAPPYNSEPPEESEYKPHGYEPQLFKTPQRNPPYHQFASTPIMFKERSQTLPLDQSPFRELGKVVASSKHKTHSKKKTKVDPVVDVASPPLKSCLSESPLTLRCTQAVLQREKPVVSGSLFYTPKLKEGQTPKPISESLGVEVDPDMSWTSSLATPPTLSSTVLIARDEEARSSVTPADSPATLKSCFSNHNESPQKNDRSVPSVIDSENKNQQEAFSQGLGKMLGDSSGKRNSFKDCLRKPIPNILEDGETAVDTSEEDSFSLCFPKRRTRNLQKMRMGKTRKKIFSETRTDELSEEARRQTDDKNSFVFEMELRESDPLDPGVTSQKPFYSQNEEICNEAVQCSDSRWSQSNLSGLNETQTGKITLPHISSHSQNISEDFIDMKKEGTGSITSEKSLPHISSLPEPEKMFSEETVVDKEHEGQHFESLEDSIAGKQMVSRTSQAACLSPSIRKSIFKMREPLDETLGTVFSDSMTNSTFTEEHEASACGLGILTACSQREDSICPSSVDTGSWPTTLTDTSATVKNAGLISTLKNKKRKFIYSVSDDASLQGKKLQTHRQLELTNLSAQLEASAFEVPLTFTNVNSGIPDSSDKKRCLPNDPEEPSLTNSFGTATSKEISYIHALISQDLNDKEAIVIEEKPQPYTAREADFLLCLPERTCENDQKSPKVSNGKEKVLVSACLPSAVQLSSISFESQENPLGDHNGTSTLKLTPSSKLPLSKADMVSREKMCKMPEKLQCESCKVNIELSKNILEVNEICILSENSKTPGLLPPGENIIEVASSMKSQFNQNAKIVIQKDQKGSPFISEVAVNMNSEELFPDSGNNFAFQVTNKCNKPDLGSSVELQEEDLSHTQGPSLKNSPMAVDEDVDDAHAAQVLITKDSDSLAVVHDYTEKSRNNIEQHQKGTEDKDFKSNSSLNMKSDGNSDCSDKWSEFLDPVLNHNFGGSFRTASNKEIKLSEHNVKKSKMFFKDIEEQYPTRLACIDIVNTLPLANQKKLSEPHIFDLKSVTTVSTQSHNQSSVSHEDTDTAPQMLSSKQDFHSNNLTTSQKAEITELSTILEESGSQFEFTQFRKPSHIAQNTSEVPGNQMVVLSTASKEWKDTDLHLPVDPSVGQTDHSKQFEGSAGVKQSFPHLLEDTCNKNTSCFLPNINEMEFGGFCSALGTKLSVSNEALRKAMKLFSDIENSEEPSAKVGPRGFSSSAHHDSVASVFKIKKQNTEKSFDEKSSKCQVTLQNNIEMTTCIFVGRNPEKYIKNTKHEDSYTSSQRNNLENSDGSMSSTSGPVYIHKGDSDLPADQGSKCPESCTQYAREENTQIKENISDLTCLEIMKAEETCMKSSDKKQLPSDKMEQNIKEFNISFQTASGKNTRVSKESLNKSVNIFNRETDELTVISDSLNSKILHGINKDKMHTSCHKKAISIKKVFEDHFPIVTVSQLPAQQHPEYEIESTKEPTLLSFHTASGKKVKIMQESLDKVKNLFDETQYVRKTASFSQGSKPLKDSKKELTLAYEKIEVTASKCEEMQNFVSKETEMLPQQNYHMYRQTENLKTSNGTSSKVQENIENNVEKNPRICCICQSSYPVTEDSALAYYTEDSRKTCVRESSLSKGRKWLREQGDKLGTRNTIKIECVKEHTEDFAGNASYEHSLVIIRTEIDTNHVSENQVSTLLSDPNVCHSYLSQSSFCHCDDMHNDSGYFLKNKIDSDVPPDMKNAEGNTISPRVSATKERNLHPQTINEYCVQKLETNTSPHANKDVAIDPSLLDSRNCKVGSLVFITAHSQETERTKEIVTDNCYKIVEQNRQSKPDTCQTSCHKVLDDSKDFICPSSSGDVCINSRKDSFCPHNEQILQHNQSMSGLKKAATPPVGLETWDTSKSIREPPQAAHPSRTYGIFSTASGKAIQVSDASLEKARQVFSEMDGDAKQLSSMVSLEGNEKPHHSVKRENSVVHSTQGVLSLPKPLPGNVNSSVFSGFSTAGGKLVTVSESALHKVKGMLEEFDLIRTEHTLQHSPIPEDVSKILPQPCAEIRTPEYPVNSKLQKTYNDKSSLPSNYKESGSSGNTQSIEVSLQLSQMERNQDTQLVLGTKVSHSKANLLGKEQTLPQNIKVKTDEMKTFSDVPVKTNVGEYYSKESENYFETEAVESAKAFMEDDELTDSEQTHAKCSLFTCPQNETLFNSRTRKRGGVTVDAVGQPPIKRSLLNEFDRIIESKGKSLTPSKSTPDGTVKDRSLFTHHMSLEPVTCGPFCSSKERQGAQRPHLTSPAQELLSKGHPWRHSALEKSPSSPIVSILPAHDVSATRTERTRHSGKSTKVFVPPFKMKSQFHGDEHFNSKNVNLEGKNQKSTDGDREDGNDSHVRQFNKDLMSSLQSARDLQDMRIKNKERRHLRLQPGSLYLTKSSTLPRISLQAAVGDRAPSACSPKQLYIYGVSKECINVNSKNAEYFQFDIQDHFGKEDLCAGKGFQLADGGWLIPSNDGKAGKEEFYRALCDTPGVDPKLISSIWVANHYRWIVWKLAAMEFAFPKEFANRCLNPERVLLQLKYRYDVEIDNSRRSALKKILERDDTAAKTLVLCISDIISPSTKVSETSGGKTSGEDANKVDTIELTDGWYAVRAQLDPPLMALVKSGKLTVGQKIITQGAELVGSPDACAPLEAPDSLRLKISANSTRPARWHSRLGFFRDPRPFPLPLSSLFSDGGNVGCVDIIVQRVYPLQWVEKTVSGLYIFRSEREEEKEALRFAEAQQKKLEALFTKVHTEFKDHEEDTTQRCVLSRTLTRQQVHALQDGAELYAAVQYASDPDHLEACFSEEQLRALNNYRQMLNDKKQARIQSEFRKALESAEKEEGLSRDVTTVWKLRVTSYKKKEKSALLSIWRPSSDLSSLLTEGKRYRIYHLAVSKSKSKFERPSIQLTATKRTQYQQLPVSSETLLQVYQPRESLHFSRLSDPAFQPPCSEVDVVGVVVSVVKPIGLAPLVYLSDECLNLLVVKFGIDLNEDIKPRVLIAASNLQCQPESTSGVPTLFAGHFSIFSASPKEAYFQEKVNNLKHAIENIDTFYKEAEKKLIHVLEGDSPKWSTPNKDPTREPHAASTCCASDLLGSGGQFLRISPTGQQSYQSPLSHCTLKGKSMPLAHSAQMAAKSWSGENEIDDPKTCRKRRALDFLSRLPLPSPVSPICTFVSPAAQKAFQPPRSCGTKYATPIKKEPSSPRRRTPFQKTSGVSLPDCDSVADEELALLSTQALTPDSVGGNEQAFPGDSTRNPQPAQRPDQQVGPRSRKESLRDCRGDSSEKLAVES

In turn, “Mouse BRCA2-Δ12 (from UniProt P97929 1-3329) (natural protein)” registered a percent loss of co-precipitation against wild-type BRCA2 in series [1] of 97 to 99%.

As a reminder, the stoichiometry N is the number of molecules, sites or subunits per partner or assembly. In the case of BRCA2 peptide F15XΔ12 (D2312-E2342), in series [2], the fold weaker affinity than HSF2BP for F0 worked out at 1000 fold and the stoichiometry N was found to be 1.

As a reminder, the Kd is a measure of binding affinity in units of concentration. A high value points to lower affinity. For the molecule B1, in series [3], the dissociation constant Kd was approximately 10 nM and the “fold higher affinity than ARM for F0” value was approximately 3 fold.

Regarding B2, in series [3], the dissociation constant Kd is approximately 10 nM and the “fold higher affinity than ARM for F0” value was approximately 3 fold.

Consider B3, for which, in series [2], the affinity, expressed as Kd, was 1 nM; the “fold tighter binding than ARM to F0” value was approximately 25 fold; the “stoichiometry N” value was 0.5. Moreover, in series [3], the “stoichiometry N” value is 0.5.

Molecule B4 displayed a percent loss of co-precipitation against full-length BRCA2-GFP in series [4] of 95%.

As for B5, the “stoichiometry N” value came to 2 in the series “SEC-MALS” and 4 in series [5].
